Source: article PMC2363329, “Interaction of the PA2G4 (EBP1) protein with ErbB-3 and regulation of this binding by heregulin” (British Journal of Cancer, 2000)

Target: T1, ErbB-3, endogenous in AU565 cells (human (endogenous in AU565), UniProt P21860 20-1342)
T1 construct: ErbB-3, endogenous in the human AU565 mammary carcinoma cell line; source: endogenous, AU565 lysate
Assay: co-IP; AU565 cells untreated, HRG (10 ng ml-1, 15 min) or EGF (50 ng ml-1, 15 min); cytoplasmic fractions in IP buffer (50 mM Tris pH 8.0, 120 mM NaCl, 0.5% NP-40); ErbB-3 immunoprecipitation, blot with anti-p38-2G4 and anti-ErbB-3; densitometry
Conditions: partners not purified

T1 sequence (P21860 20-1342): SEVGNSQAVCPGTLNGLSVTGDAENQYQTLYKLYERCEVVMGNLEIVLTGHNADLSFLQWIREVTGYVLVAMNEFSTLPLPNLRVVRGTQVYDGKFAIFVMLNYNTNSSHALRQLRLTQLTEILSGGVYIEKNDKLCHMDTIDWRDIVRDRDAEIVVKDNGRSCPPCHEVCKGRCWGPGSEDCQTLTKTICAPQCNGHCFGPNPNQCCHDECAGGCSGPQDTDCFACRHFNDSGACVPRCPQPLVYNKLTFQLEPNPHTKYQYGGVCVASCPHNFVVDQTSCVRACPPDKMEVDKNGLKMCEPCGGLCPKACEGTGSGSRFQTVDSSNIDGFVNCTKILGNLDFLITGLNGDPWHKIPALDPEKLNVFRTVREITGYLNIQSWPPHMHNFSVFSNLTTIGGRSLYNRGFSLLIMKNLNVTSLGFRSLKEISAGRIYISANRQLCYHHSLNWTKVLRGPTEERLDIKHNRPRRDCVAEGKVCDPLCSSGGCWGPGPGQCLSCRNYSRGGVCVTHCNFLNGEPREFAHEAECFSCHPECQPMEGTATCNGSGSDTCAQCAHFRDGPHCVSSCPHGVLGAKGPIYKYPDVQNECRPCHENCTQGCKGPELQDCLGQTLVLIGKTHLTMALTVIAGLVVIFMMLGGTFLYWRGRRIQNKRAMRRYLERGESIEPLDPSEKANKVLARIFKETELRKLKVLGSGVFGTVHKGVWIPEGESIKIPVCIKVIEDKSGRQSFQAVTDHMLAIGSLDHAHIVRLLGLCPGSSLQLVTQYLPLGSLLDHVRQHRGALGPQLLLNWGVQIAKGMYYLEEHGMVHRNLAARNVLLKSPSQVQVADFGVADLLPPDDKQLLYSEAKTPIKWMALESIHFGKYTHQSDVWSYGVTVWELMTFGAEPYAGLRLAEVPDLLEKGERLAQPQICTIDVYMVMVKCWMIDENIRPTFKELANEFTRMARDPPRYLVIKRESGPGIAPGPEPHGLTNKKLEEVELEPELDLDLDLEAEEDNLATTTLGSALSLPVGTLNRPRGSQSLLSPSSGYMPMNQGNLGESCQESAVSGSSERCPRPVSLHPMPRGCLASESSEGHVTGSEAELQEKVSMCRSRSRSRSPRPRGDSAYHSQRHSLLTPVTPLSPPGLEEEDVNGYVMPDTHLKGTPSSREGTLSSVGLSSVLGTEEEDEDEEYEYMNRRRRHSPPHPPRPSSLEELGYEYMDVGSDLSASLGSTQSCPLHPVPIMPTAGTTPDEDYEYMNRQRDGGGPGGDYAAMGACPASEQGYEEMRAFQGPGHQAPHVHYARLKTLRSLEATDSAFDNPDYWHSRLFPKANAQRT

ratio of Ebp1 to ErbB-3 in ErbB-3 immunoprecipitates (densitometry), EGF-treated cells: 1.3 | ratio of Ebp1 to ErbB-3 in ErbB-3 immunoprecipitates (densitometry), control cells: 1.6 | ratio of Ebp1 to ErbB-3 in ErbB-3 immunoprecipitates (densitometry), heregulin-treated cells: 0.3
B1: Ebp1, endogenous approximately 50 kDa protein in AU565 cells (natural protein, human (endogenous in AU565), UniProt Q9UQ80 1-394, looked up)
chain: MSGEDEQQEQTIAEDLVVTKYKMGGDIANRVLRSLVEASSSGVSVLSLCEKGDAMIMEETGKIFKKEKEMKKGIAFPTSISVNNCVCHFSPLKSDQDYILKEGDLVKIDLGVHVDGFIANVAHTFVVDVAQGTQVTGRKADVIKAAHLCAEAALRLVKPGNQNTQVTEAWNKVAHSFNCTPIEGMLSHQLKQHVIDGEKTIIQNPTDQQKKDHEKAEFEVHEVYAVDVLVSSGEGKAKDAGQRTTIYKRDPSKQYGLKMKTSRAFFSEVERRFDAMPFTLRAFEDEKKARMGVVECAKHELLQPFNVLYEKEGEFVAQFKFTVLLMPNGPMRITSGPFEPDLYKSEMEVQDAELKALLQSSASRKTQKKKKKKASKTAENATSGETLEENEAGD
notes: Ebp1 (PA2G4), endogenous full-length protein of approximately 50 kDa in the human AU565 mammary carcinoma cell line; predicted protein of 394 amino acid residues; also called PA2G4; source: endogenous, AU565 lysate
